Data published in patent US20220033516A1.

Target: recombinant human HER2 S310F ECD protein (human) (UniProt P04626)
Assay: SPR, Biacore 8K, 37 C, antibody captured by anti-human Fc on CM4, antigen as analyte, 1:1 model

Kd	Binder
36.2 nM	MHR0009/CD3 (bispecific antibody, human IgG1, kappa, N297A) heavy 1: QSLEESGGRLVTPGTPLTLTCKASGFSLSSYAMIWVRQAPGKGLESIGMVYIHSGGTYYASWAKGRFTISKTSTTVDLKITSPTTEDTATYFCARYNGGGSGTDLWGPGTLVTVSSASTKGPSVFPLAPSSRSTSESTAALGCLVKDYFPEPVTVSWNSGALTSGVHTFPAVLQSSGLYSLSSVVTVPSSSLGTKTYTCNVDHKPSNTKVDKRVEPKSCDKTHTCPPCPAPELRRGPKVFLFPPKPKDTLMISRTPEVTCVVVDVSQEDPEVQFNWYVDGVEVHNAKTKPREEQFASTYRVVSVLTVLHQDWLNGKEYKCKVSNKGLPSSIEKTISKAKGQPREPQVYTLPPSREEMTKNQVSLTCLVKGFYPSDIAVEWESNGQPENNYKTTPPYLDSDGSFFLYSKLTVDKSRWQEGNVFSCSVMHEALHNHYTQESLSLSP light 1: DIVMTQTPSSVSEPVGGTVTIKCQASQSIYSYLSWYQQKPGQRPKLLIYYASTLASGVPSRFKGSGSGTQFTLTISDLECADAATYYCQNNYGSDSNIYGIAFGGGTKVEIKRTVAAPSVFIFPPSDEQLKSGTASVVCLLNNFYPREAKVQWKVDNALQSGNSQESVTEQDSKDCTYSLSSTLTLSKADYEKHKVYACEVTHQGLSSPVTKSFNRGEC heavy 2: QVQLVESGGGVVQPGGSLRLSCAASGFTFSNAWMHWVRQAPGKGLEWVAQIKDKSQNYATYVAESVKGRFTISRADSKNSIYLQMNSLKTEDTAVYYCRYVHYAAGYGVDIWGQGTTVTVSSASTKGPSVFPLAPSSRSTSESTAALGCLVKDYFPEPVTVSWNSGALTSGVHTFPAVLQSSGLYSLSSVVTVPSSSLGTKTYTCNVDHKPSNTKVDKRVEPKSCDKTHTCPPCPAPELRRGPKVFLFPPKPKDTLMISRTPEVTCVVVDVSQEDPEVQFNWYVDGVEVHNAKTKPREEQFASTYRVVSVLTVLHQDWLNGKEYKCKVSNKGLPSSIEKTISKAKGQPREPQVYTLPPSRKEMTKNQVSLTCLVKGFYPSDIAVEWESNGQPENNYKTTPPYLDSDGSFFLYSKLTVDKSRWQEGNVFSCSVMHEALHNHYTQKSLSLSP light 2: DIVMTQSPLSLPVTPGEPASISCRSSQPLVHSNRNTYLHWYQQKPGQAPRLLIYKVSNRFSGVPDRFSGSGSGTDFTLKISRVEAEDVGVYYCGQGTQVPYTFGQGTKLEIKRTVAAPSVFIFPPSDEQLKSGTASVVCLLNNFYPREAKVQWKVDNALQSGNSQESVTEQDSKDSTYSLSSTLTLSKADYEKHKVYACEVTHQGLSSPVTKSFNRGEC
13.9 nM	MHR0019/CD3 (bispecific antibody, human IgG1, kappa, N297A) heavy 1: QSVEESGGRLVAPGTPLTLTCTVSGIDLSSDAMAWVRQAPGKGLEYIGIISSSGSTYYASWAKGRFTISKTSTTVDLKITSPTTEDTATYFCARGVDIYGHAYATPYGMDLWGPGTLVTVSSASTKGPSVFPLAPSSRSTSESTAALGCLVKDYFPEPVTVSWNSGALTSGVHTFPAVLQSSGLYSLSSVVTVPSSSLGTKTYTCNVDHKPSNTKVDKRVEPKSCDKTHTCPPCPAPELRRGPKVFLFPPKPKDTLMISRTPEVTCVVVDVSQEDPEVQFNWYVDGVEVHNAKTKPREEQFASTYRVVSVLTVLHQDWLNGKEYKCKVSNKGLPSSIEKTISKAKGQPREPQVYTLPPSREEMTKNQVSLTCLVKGFYPSDIAVEWESNGQPENNYKTTPPYLDSDGSFFLYSKLTVDKSRWQEGNVFSCSVMHEALHNHYTQESLSLSP light 1: EVVMTQTPASVSEPVGGTVTIKCQASQSISSYLSWYQQKPGQPPKLLIYYASTLASGVPSRFKGSGSGTEFTLTISDLECDDAATYYCQSNYGSSSSSYEDTFGGGTKVEIKRTVAAPSVFIFPPSDEQLKSGTASVVCLLNNFYPREAKVQWKVDNALQSGNSQESVTEQDSKDCTYSLSSTLTLSKADYEKHKVYACEVTHQGLSSPVTKSFNRGEC heavy 2: QVQLVESGGGVVQPGGSLRLSCAASGFTFSNAWMHWVRQAPGKGLEWVAQIKDKSQNYATYVAESVKGRFTISRADSKNSIYLQMNSLKTEDTAVYYCRYVHYAAGYGVDIWGQGTTVTVSSASTKGPSVFPLAPSSRSTSESTAALGCLVKDYFPEPVTVSWNSGALTSGVHTFPAVLQSSGLYSLSSVVTVPSSSLGTKTYTCNVDHKPSNTKVDKRVEPKSCDKTHTCPPCPAPELRRGPKVFLFPPKPKDTLMISRTPEVTCVVVDVSQEDPEVQFNWYVDGVEVHNAKTKPREEQFASTYRVVSVLTVLHQDWLNGKEYKCKVSNKGLPSSIEKTISKAKGQPREPQVYTLPPSRKEMTKNQVSLTCLVKGFYPSDIAVEWESNGQPENNYKTTPPYLDSDGSFFLYSKLTVDKSRWQEGNVFSCSVMHEALHNHYTQKSLSLSP light 2: DIVMTQSPLSLPVTPGEPASISCRSSQPLVHSNRNTYLHWYQQKPGQAPRLLIYKVSNRFSGVPDRFSGSGSGTDFTLKISRVEAEDVGVYYCGQGTQVPYTFGQGTKLEIKRTVAAPSVFIFPPSDEQLKSGTASVVCLLNNFYPREAKVQWKVDNALQSGNSQESVTEQDSKDSTYSLSSTLTLSKADYEKHKVYACEVTHQGLSSPVTKSFNRGEC
22.3 nM	MHR0016/CD3 (bispecific antibody, human IgG1, kappa, N297A) heavy 1: QSVEESGGRLVTPGTPLTLTCTVSGFSLSSNAISWVRQAPGKGLEYIGIISSSGSTYYANWAKGRFTISKTSSTTVDLKMTSATTEDTATYFCARGVDIYGHAYATPYGMDLWGPGTLVTVSSASTKGPSVFPLAPSSRSTSESTAALGCLVKDYFPEPVTVSWNSGALTSGVHTFPAVLQSSGLYSLSSVVTVPSSSLGTKTYTCNVDHKPSNTKVDKRVEPKSCDKTHTCPPCPAPELRRGPKVFLFPPKPKDTLMISRTPEVTCVVVDVSQEDPEVQFNWYVDGVEVHNAKTKPREEQFASTYRVVSVLTVLHQDWLNGKEYKCKVSNKGLPSSIEKTISKAKGQPREPQVYTLPPSREEMTKNQVSLTCLVKGFYPSDIAVEWESNGQPENNYKTTPPYLDSDGSFFLYSKLTVDKSRWQEGNVFSCSVMHEALHNHYTQESLSLSP light 1: EVVMTQTPASVSEPVGGTVTIKCQASQSISSYLSWYQQKPGQPPKLLIYYSSTLASGVPSRFKGSGSGTEFTLTISDLECADAATYYCQSNYGSSSSSYEDTFGGGTKVEIKRTVAAPSVFIFPPSDEQLKSGTASVVCLLNNFYPREAKVQWKVDNALQSGNSQESVTEQDSKDCTYSLSSTLTLSKADYEKHKVYACEVTHQGLSSPVTKSFNRGEC heavy 2: QVQLVESGGGVVQPGGSLRLSCAASGFTFSNAWMHWVRQAPGKGLEWVAQIKDKSQNYATYVAESVKGRFTISRADSKNSIYLQMNSLKTEDTAVYYCRYVHYAAGYGVDIWGQGTTVTVSSASTKGPSVFPLAPSSRSTSESTAALGCLVKDYFPEPVTVSWNSGALTSGVHTFPAVLQSSGLYSLSSVVTVPSSSLGTKTYTCNVDHKPSNTKVDKRVEPKSCDKTHTCPPCPAPELRRGPKVFLFPPKPKDTLMISRTPEVTCVVVDVSQEDPEVQFNWYVDGVEVHNAKTKPREEQFASTYRVVSVLTVLHQDWLNGKEYKCKVSNKGLPSSIEKTISKAKGQPREPQVYTLPPSRKEMTKNQVSLTCLVKGFYPSDIAVEWESNGQPENNYKTTPPYLDSDGSFFLYSKLTVDKSRWQEGNVFSCSVMHEALHNHYTQKSLSLSP light 2: DIVMTQSPLSLPVTPGEPASISCRSSQPLVHSNRNTYLHWYQQKPGQAPRLLIYKVSNRFSGVPDRFSGSGSGTDFTLKISRVEAEDVGVYYCGQGTQVPYTFGQGTKLEIKRTVAAPSVFIFPPSDEQLKSGTASVVCLLNNFYPREAKVQWKVDNALQSGNSQESVTEQDSKDSTYSLSSTLTLSKADYEKHKVYACEVTHQGLSSPVTKSFNRGEC
10.8 nM	MHR0010/CD3 (bispecific antibody, human IgG1, kappa, N297A) heavy 1: QSVEESGGRLVTPGTPLTLTCTVSGFSLSRYAMSWVRQAPGKGLEWIGIIVSSSGSTYYATWATGRFTISKTSTTVDLKITSPTTEDTATYFCARIRGYDNIGYGYPWFYYFNLWGPGTLVTVSSASTKGPSVFPLAPSSRSTSESTAALGCLVKDYFPEPVTVSWNSGALTSGVHTFPAVLQSSGLYSLSSVVTVPSSSLGTKTYTCNVDHKPSNTKVDKRVEPKSCDKTHTCPPCPAPELRRGPKVFLFPPKPKDTLMISRTPEVTCVVVDVSQEDPEVQFNWYVDGVEVHNAKTKPREEQFASTYRVVSVLTVLHQDWLNGKEYKCKVSNKGLPSSIEKTISKAKGQPREPQVYTLPPSREEMTKNQVSLTCLVKGFYPSDIAVEWESNGQPENNYKTTPPYLDSDGSFFLYSKLTVDKSRWQEGNVFSCSVMHEALHNHYTQESLSLSP light 1: DVVMTQTPASVEAAVGGTVTIKCQASQSISSYLAWYQQKPGQPPKLLIYDASDLASGVPSRFKGSGSGTQFTLTISDLECADAATYYCQSYYYSSSSSYGFAFGGGTKVEIKRTVAAPSVFIFPPSDEQLKSGTASVVCLLNNFYPREAKVQWKVDNALQSGNSQESVTEQDSKDCTYSLSSTLTLSKADYEKHKVYACEVTHQGLSSPVTKSFNRGEC heavy 2: QVQLVESGGGVVQPGGSLRLSCAASGFTFSNAWMHWVRQAPGKGLEWVAQIKDKSQNYATYVAESVKGRFTISRADSKNSIYLQMNSLKTEDTAVYYCRYVHYAAGYGVDIWGQGTTVTVSSASTKGPSVFPLAPSSRSTSESTAALGCLVKDYFPEPVTVSWNSGALTSGVHTFPAVLQSSGLYSLSSVVTVPSSSLGTKTYTCNVDHKPSNTKVDKRVEPKSCDKTHTCPPCPAPELRRGPKVFLFPPKPKDTLMISRTPEVTCVVVDVSQEDPEVQFNWYVDGVEVHNAKTKPREEQFASTYRVVSVLTVLHQDWLNGKEYKCKVSNKGLPSSIEKTISKAKGQPREPQVYTLPPSRKEMTKNQVSLTCLVKGFYPSDIAVEWESNGQPENNYKTTPPYLDSDGSFFLYSKLTVDKSRWQEGNVFSCSVMHEALHNHYTQKSLSLSP light 2: DIVMTQSPLSLPVTPGEPASISCRSSQPLVHSNRNTYLHWYQQKPGQAPRLLIYKVSNRFSGVPDRFSGSGSGTDFTLKISRVEAEDVGVYYCGQGTQVPYTFGQGTKLEIKRTVAAPSVFIFPPSDEQLKSGTASVVCLLNNFYPREAKVQWKVDNALQSGNSQESVTEQDSKDSTYSLSSTLTLSKADYEKHKVYACEVTHQGLSSPVTKSFNRGEC
